Data as given in PMC4027156.
Substitutions are numbered along the chain they refer to. pKd: −log10 of the molar value.

Key:
Conditions in all cases: BLI in buffer A (5 mM HEPES pH 7.5, 10 mM NaCl), 2.5-10 uM protein; CD with 7.5 or 15 uM ds-(dCdG)6, protein/DNA 0-8, buffer not shown in material; temperature …
[1] = test system: yabZαE3L (yaba-like disease virus); test: BLI
[2] = target: T1, caZαPKZ K56A/P57A K56A;P57A (Carassius auratus) (UniProt Q7T2M9); test: CD B-to-Z transition
T1 sequence: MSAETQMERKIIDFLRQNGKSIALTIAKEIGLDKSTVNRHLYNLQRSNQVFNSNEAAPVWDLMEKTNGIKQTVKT

[3] = target: T2, caZαPKZ R39A/K56A R39A;K56A (Carassius auratus) (UniProt Q7T2M9); test: CD B-to-Z transition
T2 sequence: T1 sequence with R39A, A57P

[4] = target: T3, caZαPKZ S35A/K56A/P57A S35A;K56A;P57A (Carassius auratus) (UniProt Q7T2M9); test: CD B-to-Z transition
T3 sequence: T1 sequence with S35A

ATTATATCGCGCGCGCGCGCGCGCGCGCG / CGCGCGCGCGCGCGCGCGCG [biotin-ATTATAT(CG)10 duplex]
pKd [1]: 7.06

CGCGCGCGCGCG (double strand) [ds-(dCdG)6]
binding signal (% of WT activity) [2]: 50 | binding signal (% of WT activity) [3]: 80 | binding signal (% of WT activity) [4]: 50
